Reference: the DeepSol protein solubility set

Experiment: soluble on expression in E. coli; label from the status in PepcDB or PDB records

Question: Which “soluble on expression in E. coli” value does the source give for “MGSDKIHHHHHHMSVMFDPDTAIYPFPPKPTPLSIDEKAYYREKIKRLLKERNAVMVAHYYTDPEIQQLAEETGGCISDSLEMARFGAKHPASTLLVAGVRFMGETAKILSPEKTILMPTLQAECSLDLGCPVEEFNAFCDAHPDRTVVVYANTSAAVKARADWVVTSSIAVELIDHLDSLGEKIIWAPDKHLGRYVQKQTGGDILCWQGACIVHDEFKTQALTRLQEEYPDAAILVHPESPQAIVDMADAVGSTSQLIAAAKTLPHQRLIVATDRGIFYKMQQAVPDKELLEAPTAGEGATCRSCAHCPWMAMNGLQAIAEALEQEGSNHEVHVDERLRERALVPLNRMLDFAATLRG” here?
Answer: Its value is “not soluble”.

Question: Which “soluble on expression in E. coli” value does the source give for “MEARTTDLSDLYPEGEALPMVFKSFGGRARFAGRVRTLRVFEDNALVRKVLEEEGAGQVLFVDGGGSLRTALLGGNLARRAWEKGWAGVVVHGAVRDTEELREVPIGLLALAATPKKSAKEGKGEVDVPLKVLGVEVLPGSFLLADEDGLLLLPEPPSGVRSGG” here?
Answer: The value was “soluble”.

Question: Which “soluble on expression in E. coli” value does the source give for “MGSDKIHHHHHHMKKNQKISVEQLEVGTFIRLPISWKDHPFLFSSFKIKDAAQIELIKGLGLKDVFFDPEKSDVEPVTSENASTQKPDEQALNALKEQMISQKSAKIDEQQKLKRDLKKTEQQFNRSVSMMRSMVSKISSRPLNAVSEAKDLISNMTTMLLNSDNLALHLMGDAKNDEHIYHHSLNVAMLCMLMAKELGWSREEVETIGIGGLFHDIGKLKVPSNILNKRVPLTTPEENFIKQHPLMSINFLKLADSFPDEAKPLIANHHEYLDGSGYPQGLKADKLDKLSQLIAVVNEYDNLCNGTNQAKGKPPSIALGLLYKNYKNKLNVEYISKLIKMLGIYPPGSIIELSSGQFAMVMSVNLQKLLCPNIVVYDQLVPKDLAPIISLQDEGLSIVRSLPAAALPEKIHKYLNPREQISLGIGQN” here?
Answer: The value was “not soluble”.

Question: With “MQIFPYSDDPNKRYHTWNYALRQQFGEKIFKVPIDGGFDCPNRDGTVAKGGCTFCSVSGSGDMIVAPSDPLPLQFQKEIQLMHQKWPTVDQYIVYFQNFTNTHAPVDVIRHRFEQVVNEKGVVGLSIGTRPDCLPDEVVNYLAELNERFYLWVELGLQTTFEETSAAINRAHDYQTYLDGVAKLRKHGIRVCTHLINGLPGETPAMMRENVRRTIQDSDIQGIKLHLLHLMTNTKMMRDYNEGRLQLMSKEAYVSVICDQLEMIPPEIVIHRLTGDAPFETIIGPMWSLKKWEVLNAIDAEMKRRNSYQGKYTVISGKEVFN” as the sequence, how does the “soluble on expression in E. coli” value read?
Answer: The value was “not soluble”.

Question: Which “soluble on expression in E. coli” value does the source give for “MRIVEEMVGKEVLDSSAKVIGKVKDVEVDIESQAIESLVLGKGGISEGLGLSKGETIVPYEMVKKIGDKILLKGPEE” here?
Answer: Its value is “not soluble”.

Question: Which “soluble on expression in E. coli” value does the source give for “MGSDKIHHHHHHENLYFQGDSFKTKSGKELTITFIKHGSLMLTYDNHSIQVDPVSEYADYTTFPKADIILITHEHGDHLDPKAIQAVEKSDTEIIANENSQKKLGKGKVLKNGDTDTSISYMKIEAVPAYNTTPGRDKYHPRHRDNGYILTFDGLRVYIAGDTEDIPEMKDLKDIDIAFLPVNQPYTMTVSQAAKAARMFSPKILYPYHYGDTKIGELKDALKDSGIDVRIRELQ” here?
Answer: Its value is “soluble”.

Question: With “MGSDKIHHHHHHMKLLEVKGLKKYFPLTKGFFKKVVGYVRAVDDVSFDIKQGETLALVGESGCGKTTTAKSILRAIDPTDGDVILHLDGKDVNIAKLSRDELKPYRRYMQMIFQNPYTSLNPRMKVKEIVGEPLLVNGIAKGKELEDRVAELLKAVGLRPEYMIRYPHAFSGGQRQRIVIARAIALRPKLVVCDEPTSALDVSIRAQILNLLMDLQEEFALTYLFITHDLSVVEHISDRVAVMYLGKIVELSSTEEIFENPKHPYTETLLRSVPKPDPDLREELVPIEGEVPNPANPPSGCYFHPRCPYAKSICKEEYPEFRNLGTEDNPHYVACHFAESLKLRGVKITL” as the sequence, how does the “soluble on expression in E. coli” value read?
Answer: The value was “not soluble”.

Question: Which “soluble on expression in E. coli” value does the source give for “MSLSTIRIGGAAVNQTPIDWENNVKNILDAIEEAKNANVEILCLPELCITGYGCEDLFLTDWVAETAIEYCFEIAASCTDITVSLGLPMRIAGITYNCVCLVENGIVKGFSAKQFLANEGVHYETRWFTAWPRNHTTTFLYNDVKYPFGDVLYNVKDARIGFEICEDAWRTDRVGIRHYEKGATLVLNPSASHFAFGKSAIRYDLVIGGSERFDCTYVYANLLGNEAGRMIYDGEVLIAHKGKLIQRNDRLSFKNVNLIYADIATDSAETPETVLTQDDLEKEFEFWEATSLGLFDYMRKSRSKGFVLSLSGGADSSACAIMVAEMIRKGLKELGLTAFLQKSNMETLFDLPALQHLPFEEQAKKITAVFLTTAYQSTRNSGDETYTSAKTLAESIGATFYNWSVDEEIEQYKATIENVIERPLTWEKDDITLQNIQARGRAPIIWMLTNVKQALLITTSNRSEGDVGYATMDGDTAGGIAPIAGVDKDFIRSWLRWAEKNRNQHGLHIVNKLAPTAELRPSEYTQTDERDLMPYDVLARIERKAIKERLSPVQVYTALLTEGPYTKNEFKYWVKKFFRLWSINQWKRERLAPSFHMDDFNIDPRSWYRFPILSSGFAKELNDLDQEGHHHHHH” here?
Answer: The value was “soluble”.

Question: Which “soluble on expression in E. coli” value does the source give for “MSLSEVDIAKADPAAASHPLLLNGDATVAQKNPGSVAENNLCSQYEEKVRPCIDLIDSLRALGVEQDLALPAIAVIGDQSSGKSSVLEALSGVALPRGSGIVTRCPLVLKLKKLVNEDKWRGKVSYQDYEIEISDASEVEKEINKAQNAIAGEGMGISHELITLEISSRDVPDLTLIDLPGITRVAVGNQPADIGYKIKTLIKKYIQRQETISLVVVPSNVDIATTEALSMAQEVDPEGDRTIGILTKPDLVDKGTEDKVVDVVRNLVFHLKKGYMIVKCRGQQEIQDQLSLSEALQREKIFFENHPYFRDLLEEGKATVPCLAEKLTSELITHICKSLPLLENQIKETHQRITEELQKYGEGHHHHHH” here?
Answer: Its value is “not soluble”.

Question: With “GADGVGNASGDWHCDSTWSEGHVTTTSTRTWVLPTYNNHLYKRLGESLQSNTYNGFSTPWGYFDFNRFHCHFSPRDWQRLINNNWGMRPKAMRVKIFNIQVKEVTTSNGETTVANNLTSTVQIFADSSYELPYVMDAGQEGSLPPFPNDVFMVPQYGYCGLVTGNTSQQQTDRNAFYCLEYFPSQMLRTGNNFEITYSFEKVPFHSMYAHSQSLDRLMNPLIDQYLWGLQSTTTGTTLNAGTATTNFTKLRPTNFSNFKKNWLPGPSIKQQGFSKTANQNYKIPATGSDSLIKYETHSTLDGRWSALTPGPPMATAGPADSKFSNSQLIFAGPKQNGNTATVPGTLIFTSEEELAATNATDTDMWGNLPGGDQSNSNLPTVDRLTALGAVPGMVWQNRDIYYQGPIWAKIPHTDGHFHPSPLIGGFGLKHPPPQIFIKNTPVPANPATTFSSTPVNSFITQYSTGQVSVQIDWEIQKERSKRWNPEVQFTSNYGQQNSLLWAPDAAGKYTEPRAIGTRYLTHHL” as the sequence, how does the “soluble on expression in E. coli” value read?
Answer: Its value is “soluble”.

Question: For “MSLIKVIDAHVHYHIYARKIPEHCKEFLENVEGTRMTLKNDNVEIEKILLVPSHPCHSEDCYDGFYIDYEERKRNPDLYMQWGEVNPLKCDVKRELERQYSLGIIGIKLHPVHHTFKPNAYREEEGGLKQLLYIYEFAEDHGLPILIHTGTSIGVGSRNKYADPIYADDIAKDFPKLRIILAHAGRPLWYNTAFHMARFTQNIFLEISSIPPKNILKVLPRIHEISDKVIYGSDFPAFKGQDLAEYAYQVYNVLKNEKIMRDNAKRILKISEGHHHHHH”, which “soluble on expression in E. coli” value is on record?
Answer: Its value is “not soluble”.

Question: For “MMSGAEEPVAIIFPQSASDGVEVLYQEFSFGRYFNQIAAGVLRGIVQTRQPRQPLRILEVGGGTGGTTAWLLPELNGVPALEYHFTDISALFTRRAQQKFADYDFVKYSELDLEKEAQSQGFQAQSYDLIVAANVIHATRHIGRTLDNLRPLLKPGGRLLMREITQPMRLFDFVFGPLVLPLQDLDAREGELFLTTAQWQQQCRHAGFSKVAWLPQDGSPT”, which “soluble on expression in E. coli” value is on record?
Answer: The value was “not soluble”.

Question: With “MGSDKIHHHHHHMTMQPKYRELLLDEDVRRWFENLKAKSVLTATVALRNLGHYCELTGTTPHGILNKARANEKDFRYEFTDFVRKMEKEGKAGSYIARFKKVILSWLKFNDIRLQLTVNIAGENETPTIVNERVPSKEELARILRKATSRGRVAIAIMAFSGLRPESLGDYEGTDGLRLGDLKELKLSDEIQFDKIPATVMVKSKLSKARHHYFSFIGEEGTTYIREYLDERRKQGEELTYESPLLQFDVRGVKKNAFLRTTLVTRDIREAIEQAGLKMRPYVLRAYFSTALDIAESKGLISHPWRQFIMGHKGDIEARYSTNKRLPPDIIDEMRESYNKCTKFLETRISDVSEENARLYLQQQLLSAVGYRQDEIDKMNLAETSTEDFQKLLRDKVAGAMASNGSKQRLVSMNEIEKLLGEGYEFQAVLPNGKAIMKMPF” as the sequence, how does the “soluble on expression in E. coli” value read?
Answer: Its value is “not soluble”.

Question: For “PIVGRIIHIENQQLNEYTGNYSSFENQRAQKMMLQQAMFEKQQKQMSHMQSYIDRFRYKASKARQAQSRIKALERMEKVLPAQFDNPFSFEFRQPAALPNPIMMMDDVSAGYGDNLILEKIRLNLVP”, which “soluble on expression in E. coli” value is on record?
Answer: The value was “not soluble”.

Question: Which “soluble on expression in E. coli” value does the source give for “SRGMTPGSRLIDYQLIDSTEELAAILGCGHPSSIHKITRVRLANDIPMAIESSHIPFELAGELNESHFQSSIYDHIERYNSIPISRAKQELEPSAATTEEANILGIQKGAPVLLIKRTTYLQNGTAFEHAKSVYRGDRYTFVHYMDRLS” here?
Answer: The value was “not soluble”.

Question: With “MEKDISRKIDLLNILIEEKRWFTLFELEKNLNCSSKTIRKDISIINDLLPKTIFIHSKKGKGVKLSLPQNQSISEAISNLLKKSLTFLAIQQLLEERSNTVTSLADKLYLPISSTNIVLKRVSKYIKKFGLSLEKKPLRIVGDEFQIILMFSERYLESYPDTEWPFTEYKEEMLIDYINYIEEKLEIVFYSNDKRRMAFIMTILFKRIKQGHKVKFSEWIIKETMESIYYKKIFEGKNVIKVNKNRSLNIEEQVLLVIMVKLSRYVSKDENNLKQEELVLYKEGESTTYTYVKNFISILEQELKIDLNNNEEFVYGMIEYCREAFHILKFIPILKAPEKDTCKYIKKHYEETFYLVKRAYNKWGAEMKLTDIPDEEIAKVTMRIVAIGKQHNINRKKVLLITGEGKSWEEYMKSRINKRYGDQLKFVGGHAKILNGNTDNIDNIDIDFIITTVPLNFSWKSIVYVSPILQERDFYEIGIFASK” as the sequence, how does the “soluble on expression in E. coli” value read?
Answer: The value was “not soluble”.

Question: With “GAMGDASRVRVSGQGLHEGHTFEPAEFIIDTRDAGYGGLSLSIEGPSKVDINTEDLEDGTCRVTYCPTEPGNYIINIKFADQHVPGSPFSVKVTGEGRVKESITRRRRAPSVANVGSHCDLSLKIPEISIQDMTAQVTSPSGKTHEAEIVEGENHTYCIRFVPAEMGTHTVSVKYKGQHVPGSPFQFTVGPLGEGGAHKVRAGGPGLERAEAGVPAEFSIWTREAGAGGLAIAVEGPSKAEISFEDRKDGSCGVAYVVQEPGDYEVSVKFNEEHIPDSPFVVPVASPS” as the sequence, how does the “soluble on expression in E. coli” value read?
Answer: The value was “soluble”.

Question: For “MGHHHHHHSHMMYAQSKGIYYVQLEDDIVAKPNYLSTMKNFALQQPSEDWMILEFSQLGFIGKMFKSLDLSLIVEFILMFYRDKPIDWLLDHILWVKVCNPEKDAKHCDRQKANLRIRFKPSLFQHVGTHSSLAGKIQKLKDKDFGKQALRKEHVNPPAEVSTSLKTYQHFTLEKAYLREDFFWAFTPAAGDFIRFRFFQPLRLERFFFRSGNIEHPEDKLFNTSVEVLPFDNPQSDKEALQEGRTATLRYPRSPDGYLQIGSFYKGVAEGEVDPAFGPLEALRLSIQTDSPVWVILSEIFLKKAD”, which “soluble on expression in E. coli” value is on record?
Answer: The value was “soluble”.

Question: With “GPGSMSMQQDFVHPRQLDDMRAIHAAINSFSGVMTKMMMLMKELGTTLEQVSHSFDALTSLTFTKDEVKQYVHKFGEEIISMKEGIAFCEYNKLVHEDVLHPVEQLKKSLKEAEQAAKAEKSAFEKYKKAKQRVDKQEKAFAEKSKPLDTSKSYPTHVQARNNALVSLQNCKSEFEERFVMLMNDVESVTSTALRRYLELNAGYMTSVVDALTKTDPTVGEAAVFYRQEKQAHRQSAVEQCCLQVNSDLSTAHASQGYRFDPSRMNGCLHDTIIFKRLPSRLRHSTGSRTRSLRVNRPAVE” as the sequence, how does the “soluble on expression in E. coli” value read?
Answer: The value was “soluble”.

Question: Which “soluble on expression in E. coli” value does the source give for “GKEHILVCISPSQGNEKVIRTAARMAEALKGKLTAVFVETPEYEESSIKEQESLRKNLRLAEQLGAQISSVYGEDISQQLAEYANVSQATKIILGRSSKRKSWLKPKLVDKLSEQIDSTDIYIIPDTQP” here?
Answer: The value was “not soluble”.
